# Assay results taken from article PMC7583046, “The Paralogue of the Intrinsically Disordered Nuclear Protein 1 Has a Nuclear Localization Sequence that Binds to Human Importin α3” (International Journal of Molecular Sciences, 2020).
# T1: human importin α3 (Impα3), intact (human, UniProt O00629 1-521)
# T1 construct: Human importin α3 (KPNA4), intact protein with the IBB domain, residues 1-521; Purification as for ∆Impα3; also called KPNA4; source: E. coli BL21 (DE3), purified (codon-optimized DNA synthesized by NZYtech, in the pHTP1 vector)
# T1 sequence (looked up): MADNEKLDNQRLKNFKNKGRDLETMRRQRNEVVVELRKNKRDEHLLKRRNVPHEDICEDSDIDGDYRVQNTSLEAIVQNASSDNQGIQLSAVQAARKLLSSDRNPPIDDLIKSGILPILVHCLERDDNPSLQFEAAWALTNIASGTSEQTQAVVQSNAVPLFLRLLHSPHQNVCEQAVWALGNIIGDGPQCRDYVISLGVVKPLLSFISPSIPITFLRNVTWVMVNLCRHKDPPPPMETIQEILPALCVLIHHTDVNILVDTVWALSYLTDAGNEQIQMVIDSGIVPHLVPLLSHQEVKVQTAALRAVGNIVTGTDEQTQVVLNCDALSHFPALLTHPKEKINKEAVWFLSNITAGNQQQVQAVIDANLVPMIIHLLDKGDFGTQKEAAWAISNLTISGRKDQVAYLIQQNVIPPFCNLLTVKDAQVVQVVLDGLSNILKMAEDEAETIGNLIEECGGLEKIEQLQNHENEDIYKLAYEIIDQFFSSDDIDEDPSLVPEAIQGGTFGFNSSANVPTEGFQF
# T2: ∆Impα3, truncated species of human importin α3 (residues 64-521) depleted of the IBB (human, UniProt O00629 64-521)
# T2 construct: source: E. coli BL21 (DE3), purified (codon-optimized)
# T2 sequence (looked up): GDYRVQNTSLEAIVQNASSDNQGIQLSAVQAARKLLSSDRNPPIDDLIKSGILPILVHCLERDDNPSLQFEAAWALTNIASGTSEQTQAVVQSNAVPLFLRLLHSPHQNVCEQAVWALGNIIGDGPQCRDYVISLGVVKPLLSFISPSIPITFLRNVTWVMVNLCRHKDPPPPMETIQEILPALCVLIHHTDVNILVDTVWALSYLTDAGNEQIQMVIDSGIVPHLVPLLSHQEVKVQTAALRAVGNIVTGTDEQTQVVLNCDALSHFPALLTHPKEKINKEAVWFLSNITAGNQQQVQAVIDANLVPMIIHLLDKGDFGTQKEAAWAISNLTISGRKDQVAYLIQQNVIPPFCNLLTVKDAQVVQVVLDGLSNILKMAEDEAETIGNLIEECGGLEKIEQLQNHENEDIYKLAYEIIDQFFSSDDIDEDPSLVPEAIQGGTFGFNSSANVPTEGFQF
# B1: ∆Impα3: Truncated species of Impα3 (residues 64-521) depleted of the IBB (protein, UniProt O00629 64-521, looked up, fragment)
# chain: T2 sequence (looked up)
# B2: NUPR1L, the NUPR1-like paralogue (intact) (natural protein, UniProt A6NF83 1-97, looked up)
# chain: MEAPAERALPRLQALARPPPPISYEEELYDCLDYYYLRDFPACGAGRSKGRTRREQALRTNWPAPGGHERKVAQKLLNGQRKRRQRQLHPKMRTRLT
# notes: NUPR1L, 97-residue-long paralogue of NUPR1, intact protein; one tryptophan (Trp62) and five tyrosines; concentrations are in protomer units; also called intact NUPR1L; source: expressed and purified as described [14]
# B3: Impα3: Human importin α3 isoform (residues 1–521) (protein, UniProt O00629 1-521, looked up)
# chain: T1 sequence (looked up)
# modifications: full-length
# B4: NLS-NUPR1L, peptide of the nuclear localization sequence of NUPR1L (residues 51-74) (peptide)
# peptide: Ac-RTRREQALRTNWPAPGGHERKVAQ-NH2
# notes: NUPR1L residues Arg51 to Gln74, the predicted NLS region; numbering as in intact NUPR1L; also called NLS-NUNPR1L; source: synthetic peptide (NZYtech, purity of 95%)
# Legend:
# [1] = ref [25]; cited from earlier work
# ∆Impα3 = conditions: CD 222 nm, 60 K/h, 50 mM phosphate pH 7.0, not reversible
# Excerpt: Far-UV CD spectra were collected on a Jasco J810 spectropolarimeter (Jasco, Tokyo, Japan) with a thermostated cell holder, and interfaced with a Peltier unit at 298 K. The instrument was periodically calibrated with (+)-10-camphorsulphonic acid. A cell with a path length of 0.1 cm was used (Hellma, Kruibeke, Belgium). All spectra were corrected by subtracting the corresponding baseline. The concentration of each polypeptide (importin species and either NLS-NUPR1L or intact NUPR1L) was the same as that used in the fluorescence experiments (Section 4.4).
# [2] = molecular target: T1, human importin α3 (Impα3), intact; experiment: other fluorescence titration; importin (0-10 μM) added to a fixed concentration of NUPR1L (8 μM) or NLS-NUPR1L (8.5 μM); 50 mM phosphate buffer, pH 7.0, 298 K; excitation at 280 nm; apparent dissociation constants; conditions: both partners purified
# [3] = molecular target: T2, ∆Impα3, truncated species of human …; experiment: as above; conditions: both partners purified
# prothymosin α = conditions: ref [14]; cited from earlier work
# Excerpt: In this aspect, NLS-NUPR1L behaves not differently from any other NLS region of a well-folded protein [15, 20, 22, 40]; that is, it is disordered both in isolation and when participating in forming the complex with impo ...
# [4] = cited from earlier work
# [5] = molecular target: T1, human importin α3 (Impα3), intact; experiment: other fluorescence titration; importin (0-10 μM) added to a fixed concentration of NUPR1L (8 μM) or NLS-NUPR1L (8.5 μM); 50 mM phosphate buffer, pH 7.0, 298 K; excitation at 280 nm; apparent dissociation constants; conditions: both partners purified; remark: listed apart in the source
# [6] = molecular target: T2, ∆Impα3, truncated species of human …; experiment: as above; conditions: both partners purified; remark: listed apart in the source
# [7] = molecular target: T1, human importin α3 (Impα3), intact; experiment: ITC; Impα3 or ∆Impα3 (10-20 μM) in the cell, NLS-NUPR1L (150-300 μM) in the syringe; Tris 50 mM, pH 8, 298 K; single ligand binding site model; conditions: both partners purified
# [8] = molecular target: T2, ∆Impα3, truncated species of human …; experiment: as above; conditions: both partners purified
molecule,measurement,setting,value
B1,solubility (relative to other importin species),[1],lower solubility
same,apparent thermal midpoint of unfolding of isolated ∆Impα3,∆Impα3; absence of NUPR1L,317 K
B2,Kd,[2],4 ± 0.7 µM
same,Kd,[3],5 ± 1 µM
same,involvement of Trp62 in binding to prothymosin α,prothymosin α,Trp62 is also involved in the binding of NUPR1L to prothymosin α
same,self-association state in solution,"[4]; intact protein in solution, no reference at the place",oligomer
same,tendency to aggregate,"[4]; intact protein, ref [14]",high tendency to aggregate
same,"apparent thermal midpoint of unfolding of ∆Impα3, in presence of NUPR1L","∆Impα3; 15 μM NUPR1L, 5 μM importin",323 K
B3,solubility (relative to other importin species),[1],larger solubility
B4,Kd,[5],3000 ± 1000 nM
same,Kd,[6],5 ± 2 µM
same,Kd,[7],12 ± 2 µM
same,dH,[7],-3.1 ± 0.5 kcal/mol
same,stoichiometry N,[7],1.04 ± 0.05
same,Kd,[8],5.5 ± 0.9 µM
same,dH,[8],-2.4 ± 0.5 kcal/mol
same,stoichiometry N,[8],0.75 ± 0.06
